Laboratory results from patent US11957748B2, “Vaccine to pathogenic immune activation cells during infections” (priority 2019, dated 2024).

Target: T1, HLA-E (HLA-E*01033-transfected K562) (Homo sapiens, UniProt P13747)
T1 construct: expressed in transfected cells; host or cells: K562 (K562/HLA-E, kept under G-418 selection)
Assay: Peptide-HLA molecule binding assay (HLA-E stabilization)
Settings: HLA-E Transfected K562 pulsed overnight at 26° C.
Procedure: Peptide binding was assessed by HLA-E stabilization assays using HLA-E*01033-transfected derivative of K562 (K562/HLA-E) cell lines. Briefly, cells were re-suspended in serum-free medium at 1×10^6 cells/ml. Where appropriate, a peptide (see Table 1) was added. After overnight incubation at 26° C., cells were washed with PBS to remove free peptides. Next, HLA surface expression was monitored after staining with anti-HLA-E mAb. Analysis was done on a FACScalibur cytometer (BD Biosciences). Results are presented as the MFI of cells stained with anti-HLA-E mAb.

| Sequence | MFI (HLA-E surface expression, anti-HLA-E mAb) |
| --- | --- |
| RMYSPVSIL (MHCIb/E-binding antigen) | 8240 |
| RIRTWKSLV (HIV-1 Pol derived peptide; MHCIb/E-binding antigen) | 6580 |
| TALSEGATP (MHCIb/E-binding antigen) | 8530 |
| PEIVIYDYM (HIV-1 Pol derived peptide; MHCIb/E-binding antigen) | 7320 |
| VMATRRNVL (MBt derived peptide) [reference compound] | 7523 |
